Assays:
14-3-3γ and PPARγ2 = target: T1, 14-3-3γ and PPARγ2 (Homo sapiens, UniProt P37231); experiment: Competitive GST-pull down assay, 14-3-3γ / PPARγ2 binding under 14-3-3β overexpression; conditions: as expression amount of 14-3-3β was increased (HA-14-3-3β DNA 2 and 4 μg); 10 μM pioglitazone; FIG. 5B
T1 construct: expressed in transfected cells; host or cells: HEK-293T
T1 sequence (P37231 1-505): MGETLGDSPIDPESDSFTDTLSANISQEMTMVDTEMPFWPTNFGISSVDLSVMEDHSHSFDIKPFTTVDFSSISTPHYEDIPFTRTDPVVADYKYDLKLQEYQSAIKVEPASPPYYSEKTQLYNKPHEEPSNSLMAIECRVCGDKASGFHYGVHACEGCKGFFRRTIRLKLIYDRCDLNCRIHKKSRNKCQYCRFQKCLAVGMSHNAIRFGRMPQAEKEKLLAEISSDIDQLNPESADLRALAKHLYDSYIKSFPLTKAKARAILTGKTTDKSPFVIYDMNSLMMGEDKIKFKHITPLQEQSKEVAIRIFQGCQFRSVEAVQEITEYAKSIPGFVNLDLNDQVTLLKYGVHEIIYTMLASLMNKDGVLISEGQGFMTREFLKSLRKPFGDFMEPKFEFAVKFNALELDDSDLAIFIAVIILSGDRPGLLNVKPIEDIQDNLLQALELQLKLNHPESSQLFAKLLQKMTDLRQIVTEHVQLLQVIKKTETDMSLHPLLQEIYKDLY
T1 sequence (P31946 1-246 partner): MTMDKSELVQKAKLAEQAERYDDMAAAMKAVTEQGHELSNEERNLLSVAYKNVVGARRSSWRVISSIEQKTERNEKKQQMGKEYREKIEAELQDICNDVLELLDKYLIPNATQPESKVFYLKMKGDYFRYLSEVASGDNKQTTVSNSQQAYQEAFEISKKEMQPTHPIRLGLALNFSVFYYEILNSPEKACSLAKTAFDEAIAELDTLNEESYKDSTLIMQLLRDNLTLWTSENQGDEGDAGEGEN
Protocol: (§1) From the previous experimental results, it was verified that 14-3-3β and 14-3-3γ were bound to the phosphorylated serine 273 residue of PPARγ2, and it was determined that the two proteins would competitively bind to the same residue. Thus, GST-pull down assay was carried out to verify competitive binding of 14-3-3β and 14-3-3γ with PPARγ2.
(§2) HEK-293T cells were seeded in a 100 mm plate at a density of 2×10^6 cells per each well, and then transfected with mGST-PPARγ2DNA (4 μg), GFP-14-3-3β DNA (4 μg) or GFP-14-3-3γ DNA (4 μg), and HA-14-3-3β DNA (2 and 4 μg) or HA-14-3-3γ DNA (2 and 4 μg) using an E-fection plus reagent (Lugen). A ratio of DNA to the E-fection plus reagent was 1:2 and this method was performed according to a manufacturer's manual. After transfection, the corresponding cells were treated with 10 μM of pioglitazone (Pio, Santa Cruz) for 24 hours, washed with ice-cold PBS, and lysed using 500 μl/well of a lysis buffer (150 mM NaCl, 1 mM EDTA, 1% Nonidet P-40, 5% glycerol, 25 mM tris-HCl, pH 7.5, protease inhibitor added), and the lysed cells were centrifuged at 10,000×g and 4° C. for 10 minutes to extract proteins. […]

HepG2 cells = experiment: Oil Red-O lipid accumulation, HepG2 cells; format: cell-based; conditions: 14-3-3 overexpression, 200 μM oleic acid 72 hours, FIG. 9B
Protocol: HepG2 cells and primary mouse hepatocytes were separately seeded in a 6-well plate at a density of 4×10^5 cells per each well, and then transfected with GFP-14-3-3β DNA (1 μg) or GFP-14-3-3γ DNA (1 μg) and si-14-3-3β (10 μM, Santa Cruz) or si-14-3-3γ (10 μM, Santa Cruz) using an E-fection plus reagent (Lugen). A ratio of DNA to the E-fection plus reagent was 1:2, and this method was performed according to a manufacturer's manual. […] The stained cells were bleached with 1 ml of isopropanol and analyzed at a wavelength of 550 nm using a DU530 spectrophotometer (Beckman Instruments, Palo Alto, Calif.).

14-3-3β and PPARγ2 = target: T2, 14-3-3β and PPARγ2 (Homo sapiens, UniProt P37231); experiment: Competitive GST-pull down assay, 14-3-3β / PPARγ2 binding under 14-3-3γ overexpression; conditions: as expression amount of 14-3-3γ was increased (HA-14-3-3γ DNA 2 and 4 μg); 10 μM pioglitazone; FIG. 5A
T2 construct: expressed in transfected cells; host or cells: HEK-293T
T2 sequence (P37231 1-505): T1 sequence (P37231 1-505)
T2 sequence (P31946 1-246 partner): T1 sequence (P31946 1-246 partner)
Protocol: as §1, §2

| binding between 14-3-3γ and PPARγ2 (14-3-3γ and PPARγ2) | binding between 14-3-3β and PPARγ2 (14-3-3β and PPARγ2) | Substance | lipid accumulation by oleic acid (Oil Red-O) (HepG2 cells) |
| --- | --- | --- | --- |
| reduced | – | 14-3-3β: 14-3-3 isoform protein, overexpressed by DNA transfection; regulating factor that increases transcriptional activity of PPARγ2 | increased lipid accumulation |
| – | reduced | 14-3-3γ: 14-3-3 isoform protein, overexpressed by DNA transfection; regulating factor that decreases transcriptional activity of PPARγ2 | reduced lipid accumulation |

— patent US20180207294A1, “NON-ALCOHOLIC FATTY LIVER REGULATING FACTOR 14-3-3 PROTEIN” (Korea University Research and Business Foundation, priority 2015, published 2018)
